T1: inter-α-trypsin inhibitor (IαI), P19827;P19823
T1 chain 1: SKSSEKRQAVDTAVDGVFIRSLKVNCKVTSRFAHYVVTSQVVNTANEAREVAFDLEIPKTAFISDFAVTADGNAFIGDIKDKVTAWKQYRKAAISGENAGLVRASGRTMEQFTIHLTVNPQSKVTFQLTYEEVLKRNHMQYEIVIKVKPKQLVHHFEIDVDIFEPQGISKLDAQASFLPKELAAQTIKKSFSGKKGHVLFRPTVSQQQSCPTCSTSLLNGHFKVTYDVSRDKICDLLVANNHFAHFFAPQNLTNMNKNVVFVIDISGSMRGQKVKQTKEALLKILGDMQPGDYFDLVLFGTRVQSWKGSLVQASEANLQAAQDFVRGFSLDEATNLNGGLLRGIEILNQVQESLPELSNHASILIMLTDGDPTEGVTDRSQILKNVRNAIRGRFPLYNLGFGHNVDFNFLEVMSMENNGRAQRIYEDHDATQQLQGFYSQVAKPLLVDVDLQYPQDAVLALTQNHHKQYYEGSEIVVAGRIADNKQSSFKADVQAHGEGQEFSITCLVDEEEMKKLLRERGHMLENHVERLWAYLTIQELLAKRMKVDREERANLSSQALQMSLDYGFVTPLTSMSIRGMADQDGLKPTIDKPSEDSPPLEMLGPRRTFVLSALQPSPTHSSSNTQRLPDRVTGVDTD
T1 chain 2: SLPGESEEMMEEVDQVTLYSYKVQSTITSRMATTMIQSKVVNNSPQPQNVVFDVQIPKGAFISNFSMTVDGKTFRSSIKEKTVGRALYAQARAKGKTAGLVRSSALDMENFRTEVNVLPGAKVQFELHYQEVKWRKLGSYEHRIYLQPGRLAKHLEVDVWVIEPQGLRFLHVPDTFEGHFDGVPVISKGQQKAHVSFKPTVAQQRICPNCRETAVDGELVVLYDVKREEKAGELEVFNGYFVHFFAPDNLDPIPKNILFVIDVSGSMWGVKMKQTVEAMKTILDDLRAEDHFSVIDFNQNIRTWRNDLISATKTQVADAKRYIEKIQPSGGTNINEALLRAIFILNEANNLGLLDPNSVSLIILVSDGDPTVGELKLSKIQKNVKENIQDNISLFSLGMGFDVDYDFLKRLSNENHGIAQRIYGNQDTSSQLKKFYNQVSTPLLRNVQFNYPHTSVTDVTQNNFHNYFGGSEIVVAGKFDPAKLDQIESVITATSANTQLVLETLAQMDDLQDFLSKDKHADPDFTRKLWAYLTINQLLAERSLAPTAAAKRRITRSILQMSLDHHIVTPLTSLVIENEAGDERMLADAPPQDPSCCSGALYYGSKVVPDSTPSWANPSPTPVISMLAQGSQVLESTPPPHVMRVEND
T1 chain 3: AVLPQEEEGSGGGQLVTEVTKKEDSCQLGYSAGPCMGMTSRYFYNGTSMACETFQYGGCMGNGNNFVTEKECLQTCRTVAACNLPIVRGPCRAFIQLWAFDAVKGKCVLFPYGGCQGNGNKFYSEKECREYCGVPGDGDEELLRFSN


Assays:
[1] = biological target: T1, inter-α-trypsin inhibitor (IαI), …; assay: competition ELISA (bPTX3 detected with HRP-conjugated streptavidin); conditions: chain shown with the change, wells coated with IαI, read off a plot
[2] = biological target: T1, inter-α-trypsin inhibitor (IαI), …; assay: ELISA; conditions: chain shown with the change, pH 7.4, PBS with Ca2+ and Mg2+, read off a plot
[3] = IαI 100 nM (est. from x axis), parent: est. 2.6
[4] = IαI about 1.7 nM (est. from x axis), parent: est. 1.0
[5] = IαI about 6 nM (est. from x axis), parent: est. 2.2
[6] = IαI about 46 nM (est. from x axis), parent: est. 2.7
[7] = IαI about 13 nM (est. from x axis), parent: est. 2.5

Binder	other: bPTX3 bound to IαI (% of bPTX3 binding in the absence of competitors) ([1]; competitor about 0.24 nM (est. from x axis), parent: est. 99) [%]	other: bPTX3 bound to IαI (% of bPTX3 binding in the absence of competitors) ([1]; competitor about 2.5 nM (est. from x axis), parent: est. 98) [%]	other: bPTX3 bound to IαI (% of bPTX3 binding in the absence of competitors) ([1]; competitor about 24 nM (est. from x axis), parent: est. 80) [%]	other: bPTX3 bound to IαI (% of bPTX3 binding in the absence of competitors) ([1]; competitor about 240 nM (est. from x axis), parent: est. 38) [%]	other: bPTX3 bound to IαI (% of bPTX3 binding in the absence of competitors) ([1]; competitor about 2400 nM (est. from x axis), parent: est. 11) [%]	response [2, 3]	response [2, 4]	response [2, 5]	response [2, 6]	response [2, 7]
wild type recombinant N-terminal region of PTX3 (N_PTX3), P26022 C47S; C49S; C103S (protein) ENSDDYDLMYVNLDNEIDNGLHPTEDPTPSASGQEHSEWDKLFIMLENSQMRERMLLQATDDVLRGELQRLREELGRLAESLARPSAPGAPAEARLTSALDELLQATRDAGRRLARMEGAEAQRPEEAGRALAAVLEELRQTRADLHAVQGWATG	99	96	82	59	30	2.6 O.D. (450nm)	0.45 O.D. (450nm)	1.3 O.D. (450nm)	2.5 O.D. (450nm)	–
wild type recombinant N-terminal region of PTX3 (N_PTX3), P26022 C47S; C49S (protein) ENSDDYDLMYVNLDNEIDNGLHPTEDPTPSASGQEHSEWDKLFIMLENSQMRERMLLQATDDVLRGELQRLREELGRLAESLARPCAPGAPAEARLTSALDELLQATRDAGRRLARMEGAEAQRPEEAGRALAAVLEELRQTRADLHAVQGWATG	–	–	–	–	–	2.6 O.D. (450nm)	0.24 O.D. (450nm)	0.86 O.D. (450nm)	2.4 O.D. (450nm)	1.4 O.D. (450nm)
wild type recombinant N-terminal region of PTX3 (N_PTX3), P26022 C103S (protein) ENSDDYDLMYVNLDNEIDNGLHPTEDPTPCACGQEHSEWDKLFIMLENSQMRERMLLQATDDVLRGELQRLREELGRLAESLARPSAPGAPAEARLTSALDELLQATRDAGRRLARMEGAEAQRPEEAGRALAAVLEELRQTRADLHAVQGWATG	–	–	–	–	–	2.6 O.D. (450nm)	0.28 O.D. (450nm)	1.1 O.D. (450nm)	2.5 O.D. (450nm)	1.7 O.D. (450nm)
